The values that follow come from paper PMC549571.

Read-outs that look alike come from different tables or passages of the source.

What all share (assay): EMSA
A general note: A gel shift assay detects complexes by their altered migration in electrophoresis.

The target in series [1] is T1, TRF1 (Homo sapiens, UniProt P54274 1-439).
Series [2] has as its target T2, TRF2ΔN (Homo sapiens, UniProt Q15554 87-542).
Series [3] deals with T2, TRF2ΔN. The source holds these as a separate data set.
In series [4] the target is T1, TRF1. This is another data set of the same source.
Series [5] deals with T1, TRF1. The source holds these as a separate data set.

T2 sequence (Q15554 87-542, stated change not applied): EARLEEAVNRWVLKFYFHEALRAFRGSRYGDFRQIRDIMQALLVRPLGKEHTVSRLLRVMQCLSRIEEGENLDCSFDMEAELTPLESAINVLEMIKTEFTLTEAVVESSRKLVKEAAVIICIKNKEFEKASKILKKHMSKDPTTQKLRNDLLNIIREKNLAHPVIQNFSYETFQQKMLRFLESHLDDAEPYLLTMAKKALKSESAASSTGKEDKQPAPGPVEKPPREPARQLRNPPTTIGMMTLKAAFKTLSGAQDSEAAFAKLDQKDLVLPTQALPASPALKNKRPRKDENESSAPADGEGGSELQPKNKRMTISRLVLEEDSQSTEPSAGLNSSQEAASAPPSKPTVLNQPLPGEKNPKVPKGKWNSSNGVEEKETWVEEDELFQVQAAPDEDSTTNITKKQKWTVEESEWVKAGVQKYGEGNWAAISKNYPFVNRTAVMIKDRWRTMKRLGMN
T1 sequence (P54274 whole entry): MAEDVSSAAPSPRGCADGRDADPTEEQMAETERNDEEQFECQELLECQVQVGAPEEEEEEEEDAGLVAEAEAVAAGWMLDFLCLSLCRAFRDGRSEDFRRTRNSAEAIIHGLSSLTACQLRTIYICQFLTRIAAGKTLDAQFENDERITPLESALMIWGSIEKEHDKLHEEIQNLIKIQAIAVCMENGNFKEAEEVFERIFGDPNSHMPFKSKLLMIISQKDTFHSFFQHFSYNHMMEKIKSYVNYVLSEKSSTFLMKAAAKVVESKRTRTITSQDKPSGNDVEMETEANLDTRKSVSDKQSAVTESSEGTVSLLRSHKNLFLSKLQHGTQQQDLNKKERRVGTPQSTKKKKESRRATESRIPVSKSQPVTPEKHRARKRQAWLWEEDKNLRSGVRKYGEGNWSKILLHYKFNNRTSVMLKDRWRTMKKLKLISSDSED

B1: non-telomeric mixed (MXT/MXB) (dsDNA)
DNA 1: GTGGATCCGTACGATGGTTTTAGGTGAACACGAATTCGA
DNA 2: TCGAATTCGTGTTCACCTAAAACCATCGTACGGATCCAC
With B1, the binding result with TRF1 [1] and with TRF2ΔN [2] was “no binding” in each case.

B2: CTRL (dsDNA)
DNA 1: GTGGATCCGTACTTAGGGTTAGGGTTAACACGAATTCGA
DNA 2: TCGAATTCGTGTTAACCCTAACCCTAAGTACGGATCCAC
As to B2, the binding signal with TRF2ΔN [3] came out at 55 % bound at 100 nM TRF2ΔN; in the series with TRF1 [4], 61 ± 6 % bound at 25 nM TRF1.

B3: 8oxoG3 (dsDNA)
DNA 1: GTGGATCCGTACTTAGGGTTAGGGTTAACACGAATTCGA
DNA 2: TCGAATTCGTGTTAACCCTAACCCTAAGTACGGATCCAC
modifications: 8-oxoG at positions 16, 17, 18 of strand 1
Take B3: the binding signal with TRF1 [4] is 21 fold decrease in % bound vs control at 25 nM TRF1.

B4: 8oxoG1 (dsDNA)
DNA 1: GTGGATCCGTACTTAGGGTTAGGGTTAACACGAATTCGA
DNA 2: TCGAATTCGTGTTAACCCTAACCCTAAGTACGGATCCAC
modifications: 8-oxoG at position 17 of strand 1
Consider B4, for which the binding signal came to 11 % bound at 100 nM TRF2ΔN in the series with TRF2ΔN [3] and 31 ± 6 % bound at 25 nM TRF1 in the series with TRF1 [4].

B5: 8oxoG1-1 (dsDNA)
DNA 1: GTGGATCCGTACTTAGGGTTAGGGTTAACACGAATTCGA
DNA 2: TCGAATTCGTGTTAACCCTAACCCTAAGTACGGATCCAC
modifications: 8-oxoG at positions 17, 23 of strand 1
As to B5, the binding signal with TRF1 [5] is 18 fold decrease in % bound vs control at 25 nM TRF1.

B6: 8oxoG2 (dsDNA)
DNA 1: GTGGATCCGTACTTAGGGTTAGGGTTAACACGAATTCGA
DNA 2: TCGAATTCGTGTTAACCCTAACCCTAAGTACGGATCCAC
modifications: 8-oxoG at positions 17, 18 of strand 1
For the molecule B6, the binding signal with TRF2ΔN [3] worked out at 17 % bound at 100 nM TRF2ΔN; with TRF1 [4], 29 ± 2 % bound at 25 nM TRF1.
